Measurements reported in the DeepSol protein solubility set.

Test: soluble on expression in E. coli; label from the status in PepcDB or PDB records

Sequence	soluble on expression in E. coli
MSLFILKNVTAVQLEPTLVLEGVDIAIEGSLIKAVGPNLRALYPQANYREMGGKLVMPGIVCAHNHFYSGLSRGIMANIAPCPDFISTLKNLWWRLDRALDEESLYYSGLICSLEAIKSGCSAVIDHHASPNFIKGSLNVLRKGFVEAGLRGMTCFETTDRNGGLAELQAGVEENILFAQAIDAAKAKGREPYLVEAHIGAHAPFTVPDEGLAMLREAVQVTGRGLHIHVAEDRYDMAHGHHHHGKEPIARLDEFDLVDSKTLIAHGIYLSPADIELLNSRDAFLVHNARSNMNNHVGYNMHLPEYRNLALGTDGIGSDMLEELKFAYFKHKDAGGALWPDSFARFLWNGNTLLERNFGAKFGRLEPGYKADLTICDYAAPTPLAPRNLGGHLAFGMGSSSVNSVMVEGRMVYQDREFAFDVEPIYQQASKVASRLWQRMDQLAEGHHHHHH	soluble
MSNVISVENLGKKYLISHQGREPYTALRDVLTDGARAFYRRLFSPGTSQADAQAEEFWALKDVSFEVKQGDRIGIIGRNGAGKSTLLKILSRITEPTEGRVRIRGRVASLLEVGTGFHPELTGRENIFLNGAILGMNRAEIARKFDEIVAFAEIEKFLDTPVKRYSSGMYVRLAFAVAAHLEPEILIVDEVLAVGDAQFQNKCLGKMEDVSTKEGRTVLFVSHNMGAIDRLCTRAVLLERGRVRLADFTKPVIQMYLDKAKNAISAWSCSTSIPDFDGIFFESISIVNKDRKIAEVLPSNEPFSITLVVNATASLKGVQIAIRITNEQGIPILTTTNCDKAGKLQEISRGRYRYTVSLPASFLPPGYYTLIVASFVPGEKLFDGVEDKLGFCIDDMGSLATLMKDGRLGVVTPLMPWDEVRLLEHHHHHH	soluble
MGSDKIHHHHHHMTDAPGPLEPLGSTGGPILDRPAFERLTTTHRRALKLHCYRMMGSLHEADDLVQETFLKAWRGRAQFDGRGSPRGWLYTIATNACLNAIKARSSAHRILEEPARPPSEGRAAAGLAAELSWLEPYPDAELPDLIDGEPGPDARYETSEAVRLAFVAAIQLLPPRQRASLLLCDVLGWSALETAQLLGGSTASVNSALQRARATLGERYPQGRPQQRSQPNPEEGVLLERYISAWQAANLDGFIALLREDATYHMPPWRDWYRGRPAIHGFFKTVWGNFAGYRAVATRANGQPAVAIYARRHQEPEWRAQSLHVIEPAYGAIASLTVYVAPLGPGLFAAFGLPPVWSGPQA	not soluble
MKYPTIIDSQQLFREPDHPLKAGLDPKCRSTKPLCPDTFAKVMKTIDTFIFDADGVLWLGESVMPGSPRLIDYLVKHNKQIIVLTNNATKSRAVYAKKLAKLGYNSSKMNKNNLVNPAAVVADTLHRAGLDGKRVYLIGEQGLRDEMDELGIEYFGHGPEKKQDEADGSGAFMYDIKLEENVGAVVVGYEKHFDYIKMMKASNYLREEGVLFVATNEDETCPGPNPEVVIPDAGPIVAAIKCASGRDPLTVGKPCTPAFNYIKRKWNINPSRTMMIGDRTNTDVKFGRDHGMKTLLVLSGCHQIEDIIENQMNERDDMVPDYVAPCLGALVPERI	not soluble
MSDDGGFLSSQSSRELTEDDHEKLAKQTSISDFKRNKLEIDARKNWDKFYHRNKNNFFKDRNWSAEDLKMMCPDIDFEKEISYLEAGCGVGNMLFPLVAEIPNLKLFAFDFSDNAVKLLEERAKELELSVATSVVDLSIPSVSSPFEEQVDLATLIFVLSAIHPEKHQISAENVRKMIKIGGSVVVRDYGINDHAMIRFGREARISDRFYVRQDGTRAYYFDLNELSEVFEKSGFRCVRKEYLHRMTVNHQKGLKAPRIFVQARFIRES	not soluble
MKGDRLADIRTIGVVVLYRPDSSVLDAIASYRHQVHELIVVDNSEEQDHKLHSRLRDRFGATIVGEGRNLGIAAALNRAAREALAEGFDLLLTMDQDSRAEPGMVEQMLACLGSDWRERVGLIAPFHLTGARPAPGGTTPCSDVMTPMTSGCLVNLAAFREVGPFRDDFFIDFVDNEYCLRLRKKGFQVVRANRALLHHRVGDLRRYGPFVATHHSPLRRYYKTRNRCAVFAEYLRDFPVHCLFDLVRLGKEVASILIFEREKTAKLRMMWRGFLDFRRGRFGPYGGLEHHHHHH	not soluble
MGSDKIHHHHHHMGGLQNVRSAALIGHNGSGKSLLLAQILYKSGLIDKADTKYVDYDPVEEEKGASFSSHVASLEWKGKKVYLIDTPGFSDFISEVINGIFVSENIISVVNAVAGVEIQTERTWNMADEMKKPIIVFVNQMDKERANFENVVAELKERFSRKIVPVVVPIGAAENFEGVVDLLKKKAYRYDGDKVQEEDMPESFNDMRSEILEDIVEQDEELMMRYLDGEDIGYDELMRVLKEGYKKGEIVPVLSGSALKGIGLDLLLDYLGDIGVSPEEAPSYKALLEDGTEIEVKFSEEEPFCAYIFKSVVDQFVGRITFAKVIAGVLRPGDTVVNVQKDVTEKVGHVYVPILKQQKEVESAGPGEIVVLLKLKEGAVGETLAHRDRRVKIVPPAFPEPMFSRSVHPKSKSDIDKISSGLSRLSDSDPTFVWEYDPETGETVVSGLGAMHLDVMIERLKKIFGVDVEVGKPKIAYRETITTTAVAEHKHKKQTGGHGQYGHVKIQLEPLPRGQGYEFVDKIVGGVIPRNFIPSVDKGIREAMKKGVLAGYPVTDVRVILFDGSYHEVDSSDISFQIAAIQAFKKGMEAAKPVILEPIMEVEVFVPEENAGDVMGEISSRRGRPLGMEPSGKGMVKVKAEVPLAEMLDFSSKLSSITSGRGYFTMRFQRYEIVPPNIQEKIIEERRREMQEQEK	not soluble
MGSDKIHHHHHHAASVTPSSALLKKSNSYYRSHARALGKKYKLAFDAQSALKKNGKAVIYVNTKDKTLNQSVKLAMAYWNKKLGKTEFTQGSKKNHTLTFGVSTAAASKSDQSDAWWTPMTKKLDVRWSYYTAEKQNIGISMTNQLNKAFYKQYADTIETKAKANLAAKGITTSDKDYLSPFNREASNVETSLPAYTTLKKDVCLVKSTLANEGRKYEYASTIAHEMGHVMGLNHSPNKQDLMYFESGNNNVYSFKKVKAGLSKYNPITTTDKNRAKLALKIYVAAH	not soluble
MTGKLYGNKDNFRTQKVLIAAKLANKTVTLAGDAAPADKFPLGVTPAFEGDALLFGAESIGLHLTGTSANAETVQWLQFAEGYLLPAVLGYVLPSVSAANFDKKTVEQYKNELNGQLQVLDRVLVKKTYLVGERLSLADVSVALDLLPAFQYVLDANARKSIVNVTRWFRTVVNQPAVKEVLGEVSLASSVAQFNQAKFTELSAKVAKSAPKAEKPKKEAKPAAAAAQPEDDEPKEEKSKDPFQDMPKGTFVLDNFKRSYSNEDTATKAIPHFWENFDADNWSIWKCEYKYPEDLTLAFMSCNLINGMYQRLEKLKKNAFASMILFGTDNNSTISGIWVWKGDKLAFELSPDWQVDYESYTWTKLDAKSDATKKEVNEYLMWEGDFGGKKFNQGKIFK	soluble
MERIALFIDGANVYAAAKRLGWNFDHRKILEHFAGLGALYNAFYYTAVPWPVDDKQKRFVDALTYMGYTVRTRPLRENTDENGDTSRRASLDIELVTDLLTTESRYDVAVLLSGDGDFERPVEVLRARGKKVIVASIPEMTSAELRNAADEYVDLASIREQVERPGYRLPSEGSGR	not soluble
MGSDKIHHHHHHMSNFNFDFAENDFGPLAAKMRPTSLEQYFGQSHLIGEGKPLRKAIQAGHIYSMIFWGPPGTGKTTLAEIIAQRINAEVERISAVTSGIKEIREAIDRAKQNRLADRKTILFVDEVHRFNKSQQDAFLPHIEDGTVIFIGATTENPSFELNNALLSRARVYVLKSLTTAEIEQVLQQAVEDPKRGLGKERLILEENLLQVLAEYVNGDARLALNCLELMVDMADETENGKKIDRTLLKEVLGERQARFDKQGDRFYDLISALHKSVRGSAPDAALYWYARILTAGGDPLYVARRLLAIASEDVGNADPRAMQVALAAWDCFSRVGAYEGERAIAQAIIYLSVAPKSNAVYTAFNTAKQQAKDLPDYDVPPHLRNAPTNLMKELGYGTEYRYAHDEPNAYAAGENYFPPELKDTQYYFPTNRGMEIQIKEKLERLREQDKSAVKKRYK	not soluble
MGSDKIHHHHHHMLSNLWKRQAPQMVGIDIGSHEIKAILLSKTADGYKILSHAAVPVKKGAVNDHEIRDSDAVLESLRLIKRSLPKSVKYAAAAVSGSAVMTKVIYMDASLSEEEMETQIEIEADNLIPYSLDEVSIDFETLSVNSADPSKVDVLLSACRTENIDARVDSLDDINLEAKVIDVEGYALGRSFELVAAQLPDGAEDKVVALVDIGANMTTFAVVEKGETTFIREQAFGGEQFTQSILSFYGMSHEQAEKAKLEGDLPRNYMFEVLSPFQTQLLQQIKRTLQIYCTSSGKDKVDHIVLCGGTSKLEGMANLLTNELGVHTIIADPFLGCLHADEQVKTQLQPTINKYMVACGLALRSYSQWRT	not soluble
MSLSPKVAWWCRHPLTFLMEAADDLCYSIVDLEDGFHMGYLPFAAVQDKLQSIADIDLNQYEGSPAETIKRLRAKAINRLVKEVAQLFLDHEPDILAGKFDQSLVELSRFSPQLKEIETMTTNAVFHHPNVVRIKIAGFEVLGDLLTDFLTSVLEKQPRPKGKLLKFMLPPEHQIAPDEDNYSKILKVTDYIAGMTDLQATLLYQQLRGEGHHHHHH	soluble
MAHHHHHHMLYSSIRYGRNCTGTNETVKPLGPCVTPLGTILGVFNGVFGYSNCNDSYVSTELRYINLTVPELNNETGQLTYISKQFYTGLAWQCVEYARRYWMQRGTPQPAYFDSVLGAADVWNLTFVRLLSNASITLPLRRYWNGDRVTDNHQIPAIGDIIIYPVQDGGFPYGHVAVIANVELSTHGAIYVAEQNWANAVWSSPHHNYTRRIPMFYDMLTSTITLDDSEHQIIGWMRYG	not soluble
MHHHHHHSSGRENLYFQGNTTKHIILVRHGQYERRYKDDENSKRLTKEGCKQADITGKKLKDILNNKKVSVIYHSDMIRAKETANIISKYFPDANLINDPNLNEGTPYLPDPLPRHSKFDAQKIKEDNKRINKAYETYFYKPSGDEDEYQLVICHGNVIRYFLCRALQIPLFAWLRFSSYNCGITWLVLDDEGSVVLREFGSVSHLPFESVTYF	soluble
MRGKRVVLPDKDHQACGLFGVIDRSGRRFSGEMAINAMINMKVRGNGLGGGFAAYGIYPEYKDYYALHVMFQDWDMEAKHRVDEFLDANFDVVYAEEIPVNPEANVASPPLFWRYFVSPNKKGDEKKLSDDDYVVKKVMEINTKINNAYVVSSGKDMGVFKGVGFPEDIAEYFMLAEEYKGYMWTAHSRFPTNTPGWWGGAHPFCILDWTVVHNGEISSYGTNKRYLEMFGYYCTLLTDTEVMAYAVDLLMRKQGLPIEIVSKIFAPPMWDHIDIMDEKKKKFYTALRMNYGPLLINGPWTIVVARHGEMFGITDRIRLRPITSGEKGDLLFVSSEESAIRAVCPDLDRVYTPMGGEPVIGRLKSREKELAKQLSEVE	not soluble
MKCSNEKVVNQEQSYESMDKFLDGVQEVAYIHSNQNVIGSSKAENHMSRWAAHDVFELKQFSQLPANIAVCSSKTYKEKVDADTLPHTKKGQQPSEGSISLPLYISNPVNQKKKKVYHTNQTTFIIGETPKGIRRKQFEEMASYFNSSSVNEFAKHITNATSEERQKMLRDFYASQYPEVKEFFVDSVSQFNNSSFEKGEQRTRKKSDKRESLIKPRLSDSETLSFKDSTNKISQVCSLKTYKRKSVKFQNHISYREEVFFNDAETKKSPVSSTQEIDSGKNSQASEDTVTSRSLNSESETRERRLENTMKDQQDLTRTGISRKEPLLKLENKKIENPVLENTSVISLLGDTSILDDLFKSHGNSPTQLPKKVLSGPMEKAKQRPKDFWDILNEQNDESLSKLTDLAVIETLCEKAPLAAPFKRREEPATSLWKSNEKFLWKKFSPSDTDENATNTQSTT	not soluble
SQYSAQRDLRMSPGDTVELGGYHFLFDGAKHHEGPNYTSDKGSIHVSRDGKEIATLHPEKRLYTVQSSMMTEAGIDAGFTRDLYVALGEPLENGAWAVRVHVKPFVR	not soluble
